The chains are these.
T1: GST-PIL15 (Oryza sativa, UniProt Q0JNI9 1-637)
T1 sequence: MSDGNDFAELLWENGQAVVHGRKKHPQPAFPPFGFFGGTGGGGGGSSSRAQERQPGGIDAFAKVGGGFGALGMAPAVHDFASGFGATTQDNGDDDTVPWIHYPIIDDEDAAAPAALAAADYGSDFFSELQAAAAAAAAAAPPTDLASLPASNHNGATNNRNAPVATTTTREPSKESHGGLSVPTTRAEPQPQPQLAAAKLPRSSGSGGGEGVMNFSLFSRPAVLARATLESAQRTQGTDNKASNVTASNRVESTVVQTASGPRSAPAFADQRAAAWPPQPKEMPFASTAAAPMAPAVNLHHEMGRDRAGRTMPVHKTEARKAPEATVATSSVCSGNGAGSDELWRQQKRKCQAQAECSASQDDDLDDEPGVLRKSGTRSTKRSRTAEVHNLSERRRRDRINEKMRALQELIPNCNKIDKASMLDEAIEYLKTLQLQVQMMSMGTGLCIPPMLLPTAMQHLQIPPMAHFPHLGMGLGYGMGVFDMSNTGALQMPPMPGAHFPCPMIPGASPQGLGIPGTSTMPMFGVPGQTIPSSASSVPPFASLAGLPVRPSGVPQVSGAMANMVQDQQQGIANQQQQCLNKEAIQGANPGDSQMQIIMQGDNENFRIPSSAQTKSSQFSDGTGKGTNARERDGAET

B1: pAMT1;2-PBE (dsDNA)
DNA 1: ACCAAAACACATGAAATCCT
DNA 2: AGGATTTCATGTGTTTTGGT
B2: pDEP1-PBE (dsDNA)
DNA 1: GATGCACACATGAAGATCGT
DNA 2: ACGATCTTCATGTGTGCATC
B3: pNRT1.1B-PBE (dsDNA)
DNA 1: ACACACACATGTGTTGTAAT
DNA 2: ATTACAACACATGTGTGTGT

This series addresses T1, GST-PIL15. Briefly: EMSA; Chemiluminescent EMSA kit (Thermo Fisher); buffer, salt, pH and temperature not stated. The conditions noted are these: protein: recombinant; tags: N-terminal GST (pGEX-5X-1); chain copies: 2; label: biotin (ends); blunt.
For the molecule B1, the binding result is “binds”.

Turning to B2, the binding result is given as “binds”.

For B3, the binding result was “binds”.

For the origin of these results see PMC12392934, “TCP19 regulates nitrogen‐dependent sheath blight susceptibility by modulating nitrogen uptake and signalling in rice”.
